According to the supplement of paper PMC9876800:

The substances below were run on peptide library, one residue held at a place counted from the S/T acceptor (assay: relative phosphorylation of the sub-library (ratio to the mean residue at this position); human; higher = residue favoured). Settings: K fixed; at +2.
Procedure, shortened: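 Purified recombinant kinases (human or orthologue constructs) were incubated in 384-well plates with biotinylated degenerate peptide sub-libraries, each fixing one residue at one position around a central Ser/Thr. Peptides were at 50 μM, with 50 μM ATP spiked with γ-32P-ATP, for 90 min under kinase-specific conditions. Spots on streptavidin membranes were phosphorimaged and quantified by densitometry. Relative sub-library phosphorylation is a ratio to the mean residue at that position.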

PAK2, construct: aa3-end, sequence (Q13177 3-524, looked up): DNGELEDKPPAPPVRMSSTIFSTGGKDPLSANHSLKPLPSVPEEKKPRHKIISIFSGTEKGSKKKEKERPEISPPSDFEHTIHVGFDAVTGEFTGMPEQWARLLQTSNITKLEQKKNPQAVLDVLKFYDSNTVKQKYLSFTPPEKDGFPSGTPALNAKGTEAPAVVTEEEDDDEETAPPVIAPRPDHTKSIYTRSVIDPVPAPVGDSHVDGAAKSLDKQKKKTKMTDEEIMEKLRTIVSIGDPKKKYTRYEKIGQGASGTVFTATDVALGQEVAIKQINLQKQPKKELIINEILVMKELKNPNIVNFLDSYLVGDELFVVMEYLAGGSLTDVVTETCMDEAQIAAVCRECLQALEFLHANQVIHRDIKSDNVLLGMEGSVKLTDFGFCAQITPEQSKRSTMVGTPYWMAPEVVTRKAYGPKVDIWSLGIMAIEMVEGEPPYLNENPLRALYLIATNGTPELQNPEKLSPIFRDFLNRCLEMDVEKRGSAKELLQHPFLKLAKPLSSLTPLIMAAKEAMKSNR
STK10, construct: aa18-317, sequence (O94804 18-317, looked up): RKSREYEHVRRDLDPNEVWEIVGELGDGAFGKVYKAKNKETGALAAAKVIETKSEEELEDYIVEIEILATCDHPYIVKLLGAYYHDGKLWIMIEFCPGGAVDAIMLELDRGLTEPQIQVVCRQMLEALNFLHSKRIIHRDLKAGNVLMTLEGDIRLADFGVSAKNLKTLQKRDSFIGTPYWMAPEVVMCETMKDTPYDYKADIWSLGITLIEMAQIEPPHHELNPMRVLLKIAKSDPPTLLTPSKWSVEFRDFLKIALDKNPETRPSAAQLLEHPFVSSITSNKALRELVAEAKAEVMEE
CSNK2A1, construct: Full length, sequence (P68400 whole entry, looked up): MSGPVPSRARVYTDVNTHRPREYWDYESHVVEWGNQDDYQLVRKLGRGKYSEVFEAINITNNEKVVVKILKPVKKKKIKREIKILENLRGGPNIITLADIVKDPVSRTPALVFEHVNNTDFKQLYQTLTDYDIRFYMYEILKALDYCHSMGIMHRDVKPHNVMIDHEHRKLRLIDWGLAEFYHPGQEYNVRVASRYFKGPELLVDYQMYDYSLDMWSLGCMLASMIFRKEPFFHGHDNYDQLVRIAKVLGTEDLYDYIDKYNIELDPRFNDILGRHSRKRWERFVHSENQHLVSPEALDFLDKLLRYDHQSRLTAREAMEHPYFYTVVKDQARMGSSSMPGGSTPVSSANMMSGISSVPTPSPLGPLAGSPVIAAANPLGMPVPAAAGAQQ
NEK1, construct: aa1-505, sequence (Q96PY6 1-505, looked up): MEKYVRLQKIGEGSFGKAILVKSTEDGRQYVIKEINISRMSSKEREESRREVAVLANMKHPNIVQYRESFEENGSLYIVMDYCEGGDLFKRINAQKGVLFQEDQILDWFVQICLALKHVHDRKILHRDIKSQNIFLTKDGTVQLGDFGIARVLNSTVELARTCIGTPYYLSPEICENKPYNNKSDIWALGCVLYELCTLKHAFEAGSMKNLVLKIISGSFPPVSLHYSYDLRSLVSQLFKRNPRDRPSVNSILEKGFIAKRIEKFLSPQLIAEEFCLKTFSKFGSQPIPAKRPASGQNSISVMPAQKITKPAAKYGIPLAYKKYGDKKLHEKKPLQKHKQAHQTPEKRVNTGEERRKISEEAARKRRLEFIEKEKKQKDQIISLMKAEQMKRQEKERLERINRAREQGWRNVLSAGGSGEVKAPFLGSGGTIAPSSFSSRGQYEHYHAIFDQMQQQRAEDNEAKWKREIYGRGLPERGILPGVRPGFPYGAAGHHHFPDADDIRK

Row | Substance | relative phosphorylation
1 | CSNK2A1, construct: Full length (from UniProt P68400) | 0.374
2 | NEK1, construct: aa1-505 (from UniProt Q96PY6) | 2.06
3 | PAK2, construct: aa3-end (from UniProt Q13177) | 0.452
4 | PRKCG, construct: Full length (from UniProt P05129) | 4.06
5 | STK10, construct: aa18-317 (from UniProt O94804) | 2.28
6 | STK39, construct: Full length (from UniProt Q9UEW8) | 0.55

Same assay, conditions: K fixed; at +3

Row | Substance | relative phosphorylation
7 | CSNK2A1, construct: Full length (from UniProt P68400) | 0.236
8 | NEK1, construct: aa1-505 (from UniProt Q96PY6) | 1.03
9 | PAK2, construct: aa3-end (from UniProt Q13177) | 0.623
10 | PRKCG, construct: Full length (from UniProt P05129) | 2.11
11 | STK10, construct: aa18-317 (from UniProt O94804) | 1.92
12 | STK39, construct: Full length (from UniProt Q9UEW8) | 0.862

Same assay, conditions: K fixed; at +4

Row | Substance | relative phosphorylation
13 | CSNK2A1, construct: Full length (from UniProt P68400) | 0.53
14 | NEK1, construct: aa1-505 (from UniProt Q96PY6) | 1.38
15 | PAK2, construct: aa3-end (from UniProt Q13177) | 0.938
16 | PRKCG, construct: Full length (from UniProt P05129) | 2.56
17 | STK10, construct: aa18-317 (from UniProt O94804) | 1.7
18 | STK39, construct: Full length (from UniProt Q9UEW8) | 1.15

Same assay, conditions: K fixed; at -1

Row | Substance | relative phosphorylation
19 | CSNK2A1, construct: Full length (from UniProt P68400) | 0.48
20 | NEK1, construct: aa1-505 (from UniProt Q96PY6) | 1.46
21 | PAK2, construct: aa3-end (from UniProt Q13177) | 1.41
22 | PRKCG, construct: Full length (from UniProt P05129) | 1.87
23 | STK10, construct: aa18-317 (from UniProt O94804) | 1.99
24 | STK39, construct: Full length (from UniProt Q9UEW8) | 0.818

Same assay, conditions: K fixed; at -2

Row | Substance | relative phosphorylation
25 | CSNK2A1, construct: Full length (from UniProt P68400) | 0.458
26 | NEK1, construct: aa1-505 (from UniProt Q96PY6) | 0.75
27 | PAK2, construct: aa3-end (from UniProt Q13177) | 1.12
28 | PRKCG, construct: Full length (from UniProt P05129) | 2.01
29 | STK10, construct: aa18-317 (from UniProt O94804) | 1.86
30 | STK39, construct: Full length (from UniProt Q9UEW8) | 0.414

Same assay, conditions: K fixed; at -3

Row | Substance | relative phosphorylation
31 | CSNK2A1, construct: Full length (from UniProt P68400) | 0.566
32 | NEK1, construct: aa1-505 (from UniProt Q96PY6) | 1.03
33 | PAK2, construct: aa3-end (from UniProt Q13177) | 1.78
34 | PRKCG, construct: Full length (from UniProt P05129) | 2
35 | STK10, construct: aa18-317 (from UniProt O94804) | 2.07
36 | STK39, construct: Full length (from UniProt Q9UEW8) | 0.61

Same assay, conditions: K fixed; at -4

Row | Substance | relative phosphorylation
37 | CSNK2A1, construct: Full length (from UniProt P68400) | 0.76
38 | NEK1, construct: aa1-505 (from UniProt Q96PY6) | 1.33
39 | PAK2, construct: aa3-end (from UniProt Q13177) | 1.58
40 | PRKCG, construct: Full length (from UniProt P05129) | 1.55
41 | STK10, construct: aa18-317 (from UniProt O94804) | 1.62
42 | STK39, construct: Full length (from UniProt Q9UEW8) | 0.771

Same assay, conditions: K fixed; at -5

Row | Substance | relative phosphorylation
43 | CSNK2A1, construct: Full length (from UniProt P68400) | 0.963
44 | NEK1, construct: aa1-505 (from UniProt Q96PY6) | 1.24
45 | PAK2, construct: aa3-end (from UniProt Q13177) | 1.81
46 | PRKCG, construct: Full length (from UniProt P05129) | 1.71
47 | STK10, construct: aa18-317 (from UniProt O94804) | 1.81
48 | STK39, construct: Full length (from UniProt Q9UEW8) | 0.927

Same assay, conditions: L fixed; at +1

Row | Substance | relative phosphorylation
49 | CSNK2A1, construct: Full length (from UniProt P68400) | 0.237
50 | NEK1, construct: aa1-505 (from UniProt Q96PY6) | 1.32
51 | PAK2, construct: aa3-end (from UniProt Q13177) | 1.16
52 | PRKCG, construct: Full length (from UniProt P05129) | 1.34
53 | STK10, construct: aa18-317 (from UniProt O94804) | 2.1
54 | STK39, construct: Full length (from UniProt Q9UEW8) | 1.56

Same assay, conditions: L fixed; at +2

Row | Substance | relative phosphorylation
55 | CSNK2A1, construct: Full length (from UniProt P68400) | 0.499
56 | NEK1, construct: aa1-505 (from UniProt Q96PY6) | 0.939
57 | PAK2, construct: aa3-end (from UniProt Q13177) | 1.37
58 | PRKCG, construct: Full length (from UniProt P05129) | 0.484
59 | STK10, construct: aa18-317 (from UniProt O94804) | 0.629
60 | STK39, construct: Full length (from UniProt Q9UEW8) | 0.65

Same assay, conditions: L fixed; at +3

Row | Substance | relative phosphorylation
61 | CSNK2A1, construct: Full length (from UniProt P68400) | 0.246
62 | NEK1, construct: aa1-505 (from UniProt Q96PY6) | 1.17
63 | PAK2, construct: aa3-end (from UniProt Q13177) | 1.13
64 | PRKCG, construct: Full length (from UniProt P05129) | 0.932
